Km data for two proteins are collected here from patent publication US11542480B2.

Substrate in data set [1]: NCC(=O)O
Kind of data set: purified protein, by the assay type. The format is biochemical, Geobacillus kaustophilus HTA426. The following applies: other: substrate glycine, 37° C., pyrophosphate, pH 8.5, WT-GOX, 60.0 °C. From the text: HTA426 is available, for example, from the National Research and Development Agency, RIKEN BioResource Research Center (RIKEN BRC) Microbe Division (JCM) (JCM12893).
However, a plasmid vector of pET-15b was used as a vector, and E. coli BL21 (DE3) was used as a host cell (host).
For convenience of explanation, the wild-type glycine oxidase is abbreviated as “WT-GOX”.

Substrate in data set [2]: NCC(=O)O
Kind of data set: purified protein, by the assay type. It is filed as biochemical, Geobacillus kaustophilus HTA426. As to conditions: other: substrate glycine, 37° C., pyrophosphate, pH 8.5, purified V-GOX1, 70.0 °C. How it is done:
For convenience of explanation, the mutant glycine oxidase is abbreviated as “V-GOX” in this example.
The enzyme activity in Table 2 is shown as the ratio (times) of the enzyme reaction rate (use of crude enzyme solution) of V-GOX when WT-GOX is used as reference (1).
Therefore, after purifying this V-GOX1, the molecular weight (SDS-PAGE), the optimum temperature, the optimum pH, thermal stability, pH stability, the specific activity, and the kinetic constant Km were evaluated. The results of the specific activity, thermal stability, and the kinetic constant Km are shown in Table 1 above, the specific activity is shown in FIG. 3A, and thermal stability is shown in FIG. 3B, and further, evaluation results of enzyme properties of V-GOX1 containing them are also shown in Table 3 together with the conditions.

Changes are numbered by the printed parent chain.

B1: Geobacillus kaustophilus HTA426 wild-type glycine oxidase (WT-GOX), SEQ ID NO: 1 (Geobacillus kaustophilus HTA426) (protein)
chain: MTHRYDVAIVGGGVIGAAIGFELAKRRHRVAIFEKGTMGSGASSAAAGMLGAQSEFSTSSPLVPLALQSRALMPALAEELRERTGIDIGLVEKGLIKLATTEEEADDLYRHYTFWRGIGEPVQWLTKGEALEMEPRLAAEALAGAMYIPGDGQVSAPDLAAALAYAAASAGACLYEYTEVFDIRSDSSGHVLDTTGGTFAAEAVVIASGAWAARLGARVGLSLSVYPVKGECVMVRAPVPLLQTTVFAKNGCYIVPKSGNRLLIGATSTPGTFDRRVSAGGVMNLLHRAAHLVPDIEQAEWVASWSGIRPQTEDGLPYLGEHPERRGLFVAAGHYRNGILLSPLTGLLVADLVERKETAFDLAPFSLTRHIGKVGVE
For the protein B1, the Km in data set [1] is given as 0.25 mM mM.

B2: Geobacillus kaustophilus HTA426 glycine oxidase variant V-GOX1, 251st glycine of SEQ ID NO: 1 substituted with glutamine (Gly251Gln; SEQ ID NO: 3 with Xaa251 = … (protein)
chain: B1 chain with G251Q
As for B2, in data set [2], the Km worked out at 0.20 mM mM.
